Laboratory results: US20200247855A1 (published 2020)
Where a chain is given by its changes, count along the chain named. Like-named read-outs stand apart in the source and are kept apart here.

Legend:
CCL15_HUMAN = biological target: T1, CCL15_HUMAN (human, UniProt Q16663 22-113); assay: BLI
T1 chain: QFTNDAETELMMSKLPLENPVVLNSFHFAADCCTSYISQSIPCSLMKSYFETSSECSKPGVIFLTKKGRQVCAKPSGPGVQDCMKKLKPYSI

CCL4_HUMAN = biological target: T2, CCL4_HUMAN (human, UniProt P13236 24-92); assay: BLI
T2 chain: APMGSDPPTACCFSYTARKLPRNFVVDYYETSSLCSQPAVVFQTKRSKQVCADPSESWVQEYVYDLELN

CCL16_HUMAN = biological target: T3, CCL16_HUMAN (human, UniProt O15467 24-120); assay: BLI
T3 chain: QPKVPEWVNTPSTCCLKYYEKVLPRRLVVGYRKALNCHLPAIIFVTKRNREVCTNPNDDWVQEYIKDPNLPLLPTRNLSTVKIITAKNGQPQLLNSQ

CCL1_HUMAN = biological target: T4, CCL1_HUMAN (human, UniProt P22362 24-96); assay: BLI
T4 chain: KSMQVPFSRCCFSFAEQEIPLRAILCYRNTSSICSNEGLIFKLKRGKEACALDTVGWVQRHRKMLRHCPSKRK

CCL22_HUMAN = biological target: T5, CCL22_HUMAN (human, UniProt O00626 25-93); assay: BLI
T5 chain: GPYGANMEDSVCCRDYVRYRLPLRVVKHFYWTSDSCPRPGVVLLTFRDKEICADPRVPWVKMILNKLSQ

CCL17_HUMAN = biological target: T6, CCL17_HUMAN (human, UniProt Q92583 24-94); assay: BLI
T6 chain: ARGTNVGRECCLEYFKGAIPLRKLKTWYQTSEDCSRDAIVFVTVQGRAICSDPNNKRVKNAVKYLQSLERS

CCL23_HUMAN = biological target: T7, CCL23_HUMAN (human, UniProt P55773 22-120); assay: BLI
T7 chain: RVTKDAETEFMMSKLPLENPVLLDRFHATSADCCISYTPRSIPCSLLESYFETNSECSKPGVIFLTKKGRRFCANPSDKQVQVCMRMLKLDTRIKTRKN

CCL14_HUMAN = biological target: T8, CCL14_HUMAN (human, UniProt Q16627 22-93); assay: BLI
T8 chain: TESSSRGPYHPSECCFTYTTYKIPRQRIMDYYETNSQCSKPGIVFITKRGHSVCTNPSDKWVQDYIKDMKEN

CCL18_HUMAN = biological target: T9, CCL18_HUMAN (human, UniProt P55774 21-89); assay: BLI
T9 chain: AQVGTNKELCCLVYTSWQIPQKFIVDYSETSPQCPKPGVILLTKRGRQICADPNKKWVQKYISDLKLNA

CCL8_HUMAN = biological target: T10, CCL8_HUMAN (human, UniProt P80075 24-99); assay: BLI
T10 chain: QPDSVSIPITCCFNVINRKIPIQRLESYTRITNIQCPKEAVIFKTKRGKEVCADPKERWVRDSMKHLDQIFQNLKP

CCL13_HUMAN = CCL13_HUMAN (human, UniProt Q99616 24-98); assay: BLI
CCL21_HUMAN = biological target: T11, CCL21_HUMAN (human, UniProt O00585 24-134); assay: BLI
T11 chain: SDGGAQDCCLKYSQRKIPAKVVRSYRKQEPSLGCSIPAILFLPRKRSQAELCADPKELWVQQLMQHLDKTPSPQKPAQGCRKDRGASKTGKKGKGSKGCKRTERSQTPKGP

CCL7_HUMAN = CCL7_HUMAN (human, UniProt P80098 24-99); assay: BLI
CCL3_HUMAN = biological target: T12, CCL3_HUMAN (human, UniProt P10147 24-92); assay: BLI
T12 chain: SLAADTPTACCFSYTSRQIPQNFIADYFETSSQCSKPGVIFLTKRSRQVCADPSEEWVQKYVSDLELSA

CCL3L1_HUMAN = biological target: T13, CCL3L1_HUMAN (human, UniProt P16619 24-93); assay: BLI
T13 chain: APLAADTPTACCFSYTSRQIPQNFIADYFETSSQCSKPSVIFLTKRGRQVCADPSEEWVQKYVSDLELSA

CCL24_HUMAN = biological target: T14, CCL24_HUMAN (human, UniProt O00175 27-104); assay: BLI
T14 chain: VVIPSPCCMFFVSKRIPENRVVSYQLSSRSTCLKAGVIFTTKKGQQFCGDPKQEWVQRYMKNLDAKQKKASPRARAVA

CCL5_HUMAN = biological target: T15, CCL5_HUMAN (human, UniProt P13501 24-91); assay: BLI
T15 chain: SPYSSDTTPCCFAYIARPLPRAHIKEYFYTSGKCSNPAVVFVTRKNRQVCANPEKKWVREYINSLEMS

CCL4L1_HUMAN = biological target: T16, CCL4L1_HUMAN (human, UniProt Q8NHW4 24-92); assay: BLI
T16 chain: T2 chain with S47G

CCL20_HUMAN = CCL20_HUMAN (human, UniProt P78556 27-96); assay: BLI
CCL19_HUMAN = biological target: T17, CCL19_HUMAN (human, UniProt Q99731 22-98); assay: BLI
T17 chain: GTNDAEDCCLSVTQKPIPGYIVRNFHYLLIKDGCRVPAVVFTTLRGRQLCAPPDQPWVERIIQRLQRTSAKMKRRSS

CCL2_HUMAN = CCL2_HUMAN (human, UniProt P13500 24-99); assay: BLI
CCL11_HUMAN = CCL11_HUMAN (human, UniProt P51671 24-97); assay: BLI
CXCL5 [1] = assay: BLI
CXCL2 [2] = assay: BLI
CXCL6 [3] = assay: BLI
CXCL3_HUMAN [4] = biological target: T18, CXCL3_HUMAN (human, UniProt P19876 35-107); assay: BLI
CXCL1_HUMAN [5] = biological target: T19, CXCL1_HUMAN (human, UniProt P09341 35-107); assay: BLI
CXCL8_HUMAN [6] = biological target: T20, CXCL8_HUMAN (human, UniProt P10145 28-99); assay: BLI
CXCL5_HUMAN = assay: BLI
CXCL2_HUMAN = assay: BLI
CXCL6_HUMAN = assay: BLI
CXCL1_HUMAN [7] = biological target: T19, CXCL1_HUMAN; assay: BLI; remark: listed apart in the source
CXCL8_HUMAN [8] = biological target: T20, CXCL8_HUMAN; assay: BLI; remark: listed apart in the source
CXCL3_HUMAN [9] = biological target: T18, CXCL3_HUMAN; assay: BLI; previously obtained data
CXCL6 [10] = assay: BLI; previously obtained data
CXCL5 [11] = assay: BLI; remark: listed apart in the source
CXCL2 [12] = assay: BLI; remark: listed apart in the source

T18 sequence (P19876 35-107): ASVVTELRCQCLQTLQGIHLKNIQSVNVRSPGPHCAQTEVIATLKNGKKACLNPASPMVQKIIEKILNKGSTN
T20 sequence (P10145 28-99): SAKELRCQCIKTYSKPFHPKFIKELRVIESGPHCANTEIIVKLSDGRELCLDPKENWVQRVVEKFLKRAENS
T19 sequence (P09341 35-107): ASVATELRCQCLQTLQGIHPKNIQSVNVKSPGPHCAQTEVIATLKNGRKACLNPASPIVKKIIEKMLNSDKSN
Sequence of CCL13_HUMAN (Q99616 24-98): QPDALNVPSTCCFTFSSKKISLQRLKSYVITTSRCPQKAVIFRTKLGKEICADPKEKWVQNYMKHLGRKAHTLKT
Sequence of CCL20_HUMAN (P78556 27-96): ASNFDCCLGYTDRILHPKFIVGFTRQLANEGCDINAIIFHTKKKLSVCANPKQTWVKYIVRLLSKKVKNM
Sequence of CCL11_HUMAN (P51671 24-97): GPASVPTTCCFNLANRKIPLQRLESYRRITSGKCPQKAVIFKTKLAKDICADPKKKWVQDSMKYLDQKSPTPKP
Sequence of CCL2_HUMAN (P13500 24-99): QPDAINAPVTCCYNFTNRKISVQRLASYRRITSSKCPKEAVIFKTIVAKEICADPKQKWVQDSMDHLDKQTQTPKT
Sequence of CCL7_HUMAN (P80098 24-99): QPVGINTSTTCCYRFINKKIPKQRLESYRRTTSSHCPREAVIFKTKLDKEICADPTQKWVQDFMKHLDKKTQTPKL

B1: P991_AMBCA (other)
chain: ENGEGTTQPDYDNSTDYYNYEDFKCTCPAPHLNNTNGTVMKPIGCYYTCNVTRCTAPDTYPCYNLTEHQAKNLTTSPTTLCAVGNCDHGICVPNGTKELCFKAPNLEE
Binder B1 has a Kd (CCL15_HUMAN) of 109 nM, a Kd (CCL4_HUMAN) of 3.68 nM and a Kd (CCL16_HUMAN) of 0.536 nM. The Kd (CCL1_HUMAN) was 8.6 nM, the Kd (CCL22_HUMAN) was 3.01 nM and the Kd (CCL17_HUMAN) was 7.37 nM. For the same binder, the Kd (CCL23_HUMAN) was 5.87 nM, the Kd (CCL14_HUMAN) was 0.711 nM and the Kd (CCL18_HUMAN) was 0.252 nM. For the same binder, the Kd (CCL8_HUMAN) was 15.9 nM, the Kd (CCL13_HUMAN) was 0.191 nM and the Kd (CCL21_HUMAN) was 26.1 nM. For the same binder, the Kd (CCL7_HUMAN) was 0.241 nM, the Kd (CCL3_HUMAN) was 2.24 nM and the Kd (CCL3L1_HUMAN) was 2.99 nM. The Kd (CCL24_HUMAN) was 5.42 nM, the Kd (CCL5_HUMAN) was 0.869 nM and the Kd (CCL4L1_HUMAN) was 1.34 nM. The Kd (CCL20_HUMAN) was 15.4 nM, the Kd (CCL19_HUMAN) was 12 nM and the Kd (CCL2_HUMAN) was 24.7 nM. It also gave a Kd (CCL11_HUMAN) of 1.9 nM.

B2: P1156_IXORI (other)
chain: ADDDNELFTVQYCGMNCTKDEGGTWTGCTGKKEGCKCYHESGKNYGLCLSTEYTDFSQYGNPSDSEIEAAKPKRSDTLSH
In the case of B2, the Kd (CXCL5 [1]) is reported as 29.8 nM, the Kd (CXCL2 [2]) is reported as 50.6 nM and the Kd (CXCL6 [3]) is reported as 62.7 nM. For the same binder, the Kd (CXCL3_HUMAN [4]) was 70.4 nM, the Kd (CXCL1_HUMAN [5]) was 5.8 nM and the Kd (CXCL8_HUMAN [6]) was 2.9 nM. It also gave a Kd (CXCL5_HUMAN) of 71.9 nM, a Kd (CXCL2_HUMAN) of 17 nM and a Kd (CXCL6_HUMAN) of 117 nM. The Kd (CXCL1_HUMAN [7]) was 6.53 nM, the Kd (CXCL8_HUMAN [8]) was 4.84 nM and the Kd (CXCL3_HUMAN [9]) was 70.4 nM.

B3: P1156 (other)
chain: B2 chain
For B3, the Kd (CXCL6 [10]) was 62.7 nM, the Kd (CXCL5 [11]) was 39.9 nM and the Kd (CXCL2 [12]) was 30.3 nM.
